{"source": "paper PMC6539025", "about": "“P-element Somatic Inhibitor Protein Binding a Target Sequence in dsx Pre-mRNA Conserved in Bombyx mori and Spodoptera litura”", "key": {"MBP-BmPSI": {"molecular_target": "MBP-BmPSI (Bombyx mori, UniProt A8R081 1-703)", "sequence (A8R081 entry or part of it)": "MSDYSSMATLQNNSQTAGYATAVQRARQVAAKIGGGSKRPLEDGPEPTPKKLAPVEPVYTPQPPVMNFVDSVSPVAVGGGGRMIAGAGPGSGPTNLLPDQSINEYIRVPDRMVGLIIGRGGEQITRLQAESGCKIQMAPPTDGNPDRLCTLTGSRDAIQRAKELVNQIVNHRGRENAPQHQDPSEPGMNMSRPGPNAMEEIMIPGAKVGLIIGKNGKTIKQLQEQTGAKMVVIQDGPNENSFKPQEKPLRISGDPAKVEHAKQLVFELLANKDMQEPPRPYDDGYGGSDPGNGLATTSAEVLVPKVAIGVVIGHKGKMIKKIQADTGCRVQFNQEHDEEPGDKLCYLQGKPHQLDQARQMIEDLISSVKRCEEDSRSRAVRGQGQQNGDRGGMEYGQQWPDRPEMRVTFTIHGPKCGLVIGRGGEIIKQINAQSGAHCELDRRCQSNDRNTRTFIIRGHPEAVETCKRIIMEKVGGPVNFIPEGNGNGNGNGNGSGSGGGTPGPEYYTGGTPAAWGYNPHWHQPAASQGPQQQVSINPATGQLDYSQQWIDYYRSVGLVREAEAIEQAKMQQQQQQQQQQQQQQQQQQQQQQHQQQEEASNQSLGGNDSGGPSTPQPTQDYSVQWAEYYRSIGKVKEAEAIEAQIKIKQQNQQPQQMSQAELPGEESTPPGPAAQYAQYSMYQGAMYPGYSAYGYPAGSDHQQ", "assay": "ITC; 25 C; n = 1.02; RNA dissolved in protein purification buffer, 20 mM Tris, 20 mM NaCl (pH not given); ITC at 25 C; EMSA buffer not given", "conditions": "protein: recombinant; tags: N-terminal His6-MBP-TEV"}, "SlPSI L127G": {"molecular_target": "SlPSI L127G (Spodoptera litura, UniProt A0A9J7DW37 1-732, L127G)", "sequence (A0A9J7DW37 entry or part of it L127G | L127G L127G)": "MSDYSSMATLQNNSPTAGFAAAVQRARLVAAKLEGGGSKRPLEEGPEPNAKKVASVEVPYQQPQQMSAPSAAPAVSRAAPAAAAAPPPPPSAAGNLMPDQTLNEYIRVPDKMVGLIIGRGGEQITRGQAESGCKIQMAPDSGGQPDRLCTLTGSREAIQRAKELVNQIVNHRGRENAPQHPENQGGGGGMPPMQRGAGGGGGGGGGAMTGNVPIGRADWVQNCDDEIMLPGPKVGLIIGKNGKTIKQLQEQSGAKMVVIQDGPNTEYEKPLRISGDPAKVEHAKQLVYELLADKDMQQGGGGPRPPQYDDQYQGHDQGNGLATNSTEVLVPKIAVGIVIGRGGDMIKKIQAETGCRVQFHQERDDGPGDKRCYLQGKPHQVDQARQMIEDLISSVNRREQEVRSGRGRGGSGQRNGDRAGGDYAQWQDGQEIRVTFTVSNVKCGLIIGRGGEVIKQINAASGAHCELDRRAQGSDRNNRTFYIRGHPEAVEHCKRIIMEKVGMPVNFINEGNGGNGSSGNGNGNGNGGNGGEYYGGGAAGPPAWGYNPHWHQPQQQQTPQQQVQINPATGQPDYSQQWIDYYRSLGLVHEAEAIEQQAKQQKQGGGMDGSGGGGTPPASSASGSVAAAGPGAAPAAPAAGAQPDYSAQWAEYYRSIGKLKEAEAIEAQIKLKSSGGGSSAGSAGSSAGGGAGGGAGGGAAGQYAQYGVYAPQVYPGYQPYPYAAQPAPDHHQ", "assay": "competition; unlabeled CE1 against biotin-CE1; RNA dissolved in protein purification buffer, 20 mM Tris, 20 mM NaCl (pH not given); ITC at 25 C; EMSA buffer not given", "conditions": "protein: recombinant; tags: N-terminal His6-MBP-TEV"}}}
{"binder": "UUAAUAAUAUAAGUGGUGUA (ssRNA)", "note": "[CE1 RNA, unlabeled]", "values": [{"measurement": "Ka", "setting": "MBP-BmPSI", "result": "1.74e+07", "unit": "M⁻¹"}, {"measurement": "binding result", "setting": "SlPSI L127G", "result": "binds"}]}
